± gives the uncertainty stated by the source.
Test: amyloid nucleation score (Sup35N fusion, yeast selection) (log enrichment); library NNK1; higher = more nucleation; inactive = no reads after selection
How it was run: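 The nucleation score is the DiMSum log enrichment of output over input reads, centred on the mode score of non-aggregating sequences. Only sequences with 100 or more input reads were scored, using Illumina sequencing of input and output plasmid inserts. Psi-negative yeast expressing Sup35N fused to peptides of 20 random codons were induced 24 hours with 100 μM copper sulfate and grown 7 days at 30°C on medium lacking adenine and uracil.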

Substance	amyloid nucleation score
WLVHIHRTSSISYILCLDLG	inactive
SSKLSYWYKMAIESSFNVLH	-0.083 ± 0.41
NGNNQYRPVCDYSYYRRSCS	-0.234 ± 1.6
LNINSKYLNLICYHIRHLAV	-0.593 ± 0.78
RKVMKTRVSIDHVNFAERRF	1.82 ± 0.29
MTEQAQ	0.286 ± 1.4
GFTSHFRYLWHILIRYWSNP	0.442 ± 0.39
CRNVRQSCGYIYYCSRKHLA	0.546 ± 0.49
TIWLDCLMDKTYVFDCLFSF	0.587 ± 1.1
FLNGKSGHAVVKLEGLMTNW	0.447 ± 0.32
SKFIYRRLKELFVFGYSIVT	inactive
SSSKYMIFFYRAIHHHKGME	0.31 ± 0.33
FYIILNVLFPRQVTCSDK	5.7 ± 0.075
FGLIKWWDGVWWLSDLRRLH	0.979 ± 0.65
VIMCVSRCTVRCV	0.486 ± 0.52
FRKTMLWVLVVMGPIFTGSR	0.548 ± 0.87
AVFGTIIESFMSGG	0.399 ± 0.34
RYATSMYPL	0.069 ± 0.56
HLPFYLCF	1.57 ± 0.43
QRERMRGFKFDRLFCIRVWW	-1.03 ± 0.44
LCKDLAKHHN	4.97 ± 0.056
SAVVTRMGGGLKLRTWHEGN	0.53 ± 0.55

Substance	amyloid nucleation score
SWATWLDMNG	0.964 ± 0.76
MTGQTCRFEGSFRFMERCRK	0.43 ± 1
LEMVINSFRELSLAY	-0.212 ± 0.46
DAMHCCKTDYYIIGISGPSD	0.732 ± 0.68
LNATGSLPYDIMECTKELWP	-0.343 ± 0.7
STLLMTSDSSALMLLYTSIL	-0.336 ± 0.46
WESDIFFMIGLVQRRQLTGP	2.91 ± 0.17
VTRDMCGYLVCFWQYAG	7.728 ± 0.045
SRSSCQVMVSRDAADVLHRI	0.423 ± 0.58
TAFLGTSGG	0.448 ± 0.42
HLYGVR	0.267 ± 0.84
KWSPIAGSTMIMEMCH	-1.08 ± 0.83
SPHAIGRYLSFCRFCGTAAR	-0.026 ± 0.35
PPVHSDFKWAFVWVQLVWRG	-0.016 ± 0.53
QMVYRYDER	-1.43 ± 1.6
FMYTDPDSVPQGSDTTSLAL	-0.129 ± 0.46
DWRMWGF	-0.865 ± 0.69
WKVVCNVPVVWFFLKRLHLL	0.498 ± 0.38
SVFISNERL	inactive
FNYHRRPLNYISNRQYGGLS	inactive
FICQDVNICCSL	7.305 ± 0.052
RSVMCGWDHPRDRVGAPEWL	0.439 ± 0.71

Substance	amyloid nucleation score
TWSSGRETSCVLFWVQVSKL	-0.101 ± 0.33
GRVCKHIFK	0.375 ± 1.2
YINLSYPIFTNSDLFGPCWH	3.45 ± 0.12
LLVSVFTRYFPGNVRVTWGT	-0.21 ± 0.32
GCLAPLLIDLCCFQMRNSSN	0.05 ± 0.49
WVCLNYYWGCVRRTTRVFCL	-0.198 ± 0.52
DLCIFIYFVISVRVLYRISN	inactive
IWILYLAFIVHKNVLLPRVL	0.123 ± 0.49
APEGLPMDAPGLGWVNRVII	-0.295 ± 0.8
FVTIWWLYRTCIFLSTVRTT	1.5 ± 0.26
PTIKRGTVGFNWVGRACSGK	-0.529 ± 0.57
NFPKYGFQGVFRTPMWYGFF	-1.63 ± 1.1
YPCNLFCMMTLLNYLGSSVA	6.49 ± 0.074
SPGVDGWNPWVDTVLRKVSK	-0.776 ± 0.61
DLLQLYSDGTRGYVFFLLMK	inactive
NLGVKDLNTI	-0.905 ± 0.4
ACLISMMLVLCYI	1.67 ± 0.53
DIRLTMRVSSLSM	0.566 ± 0.31
YFAYQDILVNDTIRIL	0.063 ± 0.56
FGVYLACIHRKVLECDR	-0.241 ± 1
GALVCRCDGCYKSMGKAIMA	-0.243 ± 0.56
SLNREYVYKRGGVREWCRYL	0.856 ± 0.59

Substance	amyloid nucleation score
IHVSFKDYLTVSTIMMWTIV	-0.077 ± 0.66
WKCLRYPY	inactive
CDGVMKSGVKKMSTSRDWFM	inactive
IRHNTRRSSIRTET	0.086 ± 0.49
LVCVSQVYGALDTCGPVSMM	0.379 ± 0.54
TVWTGQRRMRVSTGCLWSGG	inactive
FMIHMLTGSLLRVNDCNLGE	0.987 ± 0.64
VNRALAFNCWSALILGNAVV	-0.608 ± 0.31
WADTIFCTSACNNVSGIRWG	-0.681 ± 0.58
FYPLF	1.27 ± 0.66
FRSGTHWSMDFGHAKEIRR	1.39 ± 0.14
FFAIVGRKVCRGSIHFWSIT	1.23 ± 0.61
PILCGTSLSQINDYYGV	-0.369 ± 0.56
CFINSDVMVLLVTTYHYS	7.321 ± 0.071
RRGGFG	-0.085 ± 0.69
SWFYYAKC	0.05 ± 0.76
KFRSEGWIGCESVIKW	4.72 ± 0.078
QRMCVYLGTLPLSLLGRMWG	0.175 ± 1.1
FCTCSLKQVM	inactive
VYKRFSTTMCLMTSSEWVDS	2.45 ± 0.068
